Tested on: HEK293T
Experiment: median enrichment of reporter reads in eGFP-reduced (low/intermediate) vs eGFP-high sorted cells (eGFP-extension fusion abundance) (ratio); higher = stronger loss of eGFP-fusion protein abundance (more destabilising extension)
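Further: lentiviral eGFP-IRES-mCherry reporter pool sorted by FACS 96 h post-transduction, gated on mCherry-high cells, Illumina read counts normalized per million, median across four biological replicates.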

Point of comparison: KIFLELLAIVTECPPFQSQLKTSAP [HEY2], median enrichment 4.36. Against it:
- PPP [Pro03] — lower, 0.305
- SLRSLRAGPSAAGSCLNTSLDMARTHRDTGQDQPCLWRQDTTIWPMAVTSCRVQSQTGNHHLRQDLPASFTFLISRALPPILC [SLC22A13] — higher, 8.01
- RQADEGATLTQSPQKAKCDSQVSSLTQR [PCARE] — lower, 0.302
- SLIRLAT [AK6] — higher, 9.3
- SDFYLNRETYARTVWTNSRPRHGARRPAGLPPLDGRGKDGRELHCESAARAAGGWDWSSLYCR [DOT1L] — higher, 6.88
- GAFFLEEESENFQTTAADSALMGCWLIGVLSMGDWNFFFV [ZNHIT6] — higher, 8.19
- WQGLPQHQSGDCDREGLAGTPRASGVVTDQEGLARTSANICGAAANNAAITENMVLVLKNVQCHFQQFKINRQNHPVARIT [OR2T2] — higher, 6.25
- LTATRMDTALAVPTLDRVSALLHTGGGAGAYSCSIKHPSYAPPQ [ACTL7A] — higher, 9.25
- STVKEGVFVWTR [DSC1] — lower, 2.35
- RAALLSSQAAPVPSPSTLEWSSSACFPSHRPATTPTMCRKHCLTIPHPPDNSQGWSPGHFQLLLSPCIVSLLCFFSLPPLLFL [RAB15] — higher, 7.07
- CVTVLDFSKTSFNTE [GABRB3] — higher, 4.69
- WSLVTPIEI [OR52A5] — higher, 7.53
- RYPGASPVTVTAAPPPRLLSASNHLDSPEESPMETALIRCPAAARGPRSPRVPLKECLGHIRPARSRERAPNARPG [CUX1] — higher, 4.54
- LGEMSLSFLLPF [C10orf82] — lower, 3.93
- YPLRDSRCYLSSVPHFL [SYT9] — higher, 12
- SLTVFHKEDV [ATP2A2] — lower, 0.983
- DDDDDDDD [Asp08] — lower, 0.299
- CGWNQGQPALRASVLLRGAVCGEGLSWQGKHLRVTLTLGPLLFLKRLLATGKKNDLATLEETSAKEDVLASLSYFCSVVDLHI [POLR1D] — higher, 8.09
- WEPTACRCRRMRGCRDARRRPRSQPTTPPPA [FOXL2] — higher, 17.5
- WDFGSF [TSPAN31] — lower, 0.573
- QSSLSR [SCAF8] — lower, 1.11
- CGA [FOSL1] — lower, 0.817
- EKHLKC [FAN1] — lower, 0.297
- GRTRRFNRASVVSPVGLQKSGAFAICLK — higher, 10.9
- YSPQAD [YAP1] — lower, 0.413
- RGLLPLGPLTLSGWWTTKYNPVYNLKIYFTFVLLYLFIKG [SMAD4] — higher, 6.89
- KKK [Lys03] — lower, 0.373
- CGSRPGRPFARRRGMGERT [ARHGEF1] — higher, 7.51
- WPLSPHPHLHPRTSLAIGAGPLQTLIPTPTEPLAQVPLVLPHSLAARCPGAHPCRAPKDGEVGGQELLSPTFHAPPLCI [GIT1] — lower, 3.23
- SAHAARRQGGLRRGPHSTRVCFCAAVQTVATALTERDSRAFILKEMFFPRGLLKE [GATA6] — higher, 4.62
- LANAS [NXF1] — lower, 0.411
- GGQCLPAPPLASSSAPRVPSVDPIRPAMASYSKMV [ACO2] — lower, 0.291
- CPCSRVSQGHFAATAAFPEIKQPGAVASELRGAGGRARTLGLGHGALSLKATFLTYSLYITQRP [CTNS] — lower, 3.76
- GSSC [KRTAP13-1] — lower, 0.297
- SVGTAQWRRGYSPG [HTR3A] — higher, 28
- YYVIRNLVAWPYLAAREPGRYVAGRLGMCPVKNSVDSLIKKKRKKDTMGTLYLVFILCMYRSSKKLHRISVTLYASGKQDWEL [CFAP61] — higher, 41.5
- TAPALELGARAAELVFGPQRRIQNQKLKSDVRWAPAPSAESRQGEAGWSQAPSHAAPKSWTHLWGAPHLHLRPHISPLPFLYV [MYO9B] — higher, 5.92
- LIGCMEK [BTN3A1] — higher, 11.1
- CGLPSGGGAMWLGS [SMYD1] — lower, 0.906
- KEHLWFT [NPAP1] — lower, 1.2
- WFC [HNRNPF] — lower, 2.6
- QRRQMQTKAT [TWSG1] — lower, 0.373
- YEKCVVCGADSGHHVDSLALPQATSPGTIFLP [BTD] — lower, 2.26
- LFDDRDLH [VAMP4] — lower, 0.625
- SGAKQRHQLLHQKS [SGMS2] — lower, 0.386
- QDFRSICKCLFFIIALYIVCYLTR [DDX5] — higher, 10.2
- QAMPRPRT [CREB3L1] — lower, 0.317
- REAGLPVLLPQGPLWLFTNKDPFVK [BCL7C] — higher, 6.88
- WQQPQG [CCNB3] — lower, 0.678
- WPHPAPPPPRPTRRPPDSSPGASSATPSLHPWGPSPPACTEQGLGVSWEA [ITGB4] — lower, 1.34
- MMMMMMMMMM [Met10] — higher, 10.8
- LTRKCCCPSSTLRPGAG [FCHO1] — higher, 7.02
- WVLSRAVEVPVIPAGAAATQSGRQGGEHLSATETNHSLFAQHASSSVLHSSPGSLSGSSTESFCSLKCWDA [CGNL1] — higher, 8.11
- YPTVGPGWAGRSWCVTGCPGRHVLALTVPGLSLPAAAIQEIVATVTLTSSAWFLPLPSGVDKGPLIIFSFVFL [DVL2] — higher, 7.88
- YISHVNLPER [MSMO1] — higher, 15.7
- GRCSDASAGAGTPNPWLQNRDPHPDRGSSAFEGFQAGLCGTEAQRGPGTWQRWGREEIQLPSLLPLLLQVPSNQELYILLVPQ [CCDC86] — higher, 5.26
- TTTTTTT [Thr07] — lower, 0.319
- AAAAAAAAA [Ala09] — higher, 8.59
- CCC [Cys03] — lower, 1.07
- QLGPAWKASAPCTHTDRNFRDCGVETGAQALQRVALKL [RAB36] — higher, 7.77
- LTGLPTWLPT [AANAT] — lower, 1.93
- KGPEPGWGISAGQRRRLSQLFPDIQGHCSLLPSRTSLLPPTMAGGEQVSQKHPVPRMVLCACPSLLGLPFPLLREDVSLLTCT [KIRREL1] — higher, 7.38
- CCTKDLLF [GNA13] — lower, 1.47
- RFQIWRRPGKPTEVQHVICLKVVLLHHIDDPTTSNMGHSIHFNISIFLYHFCYLSV [ARPC5] — higher, 6.81
- LEIWRIF [RNF148] — higher, 9.09
- QSSQSSARP [SNX32] — lower, 0.324
- LDFMHSSERVTVTTVLSPISHKLLFVSKRMLLLLHCFPFAGTCWCLLLNWPALLAVWHCSLGRLLCSLYLHYRLVNLPTSSL [DCUN1D4] — higher, 4.52
- RQEGPSGRDGPGGGQMGRCGRHVIDSTEGLSCVPPTLPWTDSEGPPGTSAKAG [KCNF1] — higher, 5.07
- SVLPAHLGLVLALPRPL [LRSAM1] — higher, 14.6
- AESLGSDLAAWGESLGSVLAAWGAGIAQSMNGPTPAKAESLGPVSPAAHGTGIAHGVRSVHLQGLRPWAQSALLLRVQALHMV [WNT9A] — higher, 7.26
- SAPPGTPSTPSIFSTKALVVSTLLPNGHTPKWPVGRESWSTCSGMVWWKRG [CLIC1] — higher, 11
- YPSL [KCNK2] — lower, 0.357
- SKWADE [PLPP5] — lower, 0.25
- LPVGVAGSSLQIWPARCLAGWTG [DOLPP1] — higher, 8.63
- LFD [RBM26] — lower, 1.04
- CVETCAPRRGAAVREGLCTAAPATDPVRKYLLGASPGLGLGMRWSPGLSFLSTQWVILASTCRAPCQALPTHLPV [OLFML2A] — higher, 7.4
- QESSPPAHQGQDTWLGADAGPDVAEDSRAGRARGGGGGGGGGRRRRSRPLPTTSRRRRGARAEEPGTGDS [C6orf223] — lower, 0.3
- CHLRNI [MLLT10] — lower, 1.38
- LFSSQLF [ADAM17] — higher, 5.62
- KHVVLWVHFV [ABHD3] — higher, 10.5
- YIAD [FUCA2] — lower, 0.607
- QRPVLVSHPCHSRSLPVPLLPKMPWLDWTPSPHDHASDCHPLPVPKSMCTPLTTGTAPPNHRHQATI [PTPRCAP] — higher, 8.88
- KRL [CYP17A1] — lower, 0.493
- YGGPVGEPGDSRV [CHRND] — lower, 0.405
- RIFCLVASQLGVL [GXYLT2] — higher, 6.32
- YSHPPPLGVPNVPSAVPAAAPLHPQLHHPLSHSRSCTPAFQLCPRGF [PRKCG] — lower, 3.59
- LHGFQASGSLTISLLRVSPGNCLTKSQAQGLLSIYLISERLF [LIMCH1] — higher, 33.9
- PLAPALPTSSAWSEGAARAQQRRGGRLWPPTSRPVPAGTASPSAGRGSAPRKCLLCPGAERRCLLGAGLPPCGSCAPWPGPCP [ARHGAP39] — lower, 1.98
- RPQMAGTCSSDERVLRRTPPSSVLEAGRLGSRRGQRHLLSVLGCKQLCVSGDTSHHVPGN [AIRE] — higher, 7.82
- CKKKKKKALAFSCLFC [PCDH17] — higher, 46.4
- YCPGVCCLAHMSLL [CLSTN2] — higher, 19.2
- QRKKRKTALGLAYGLRGCCC [WEE2] — higher, 6.66
- LVCPLATDTVGNQTLSWSLLLAHSTSKWI [HIBADH] — higher, 12.8
- QKQPQGSINNICQLNLLSSNAKKGEWRVQD [PAPOLA] — lower, 2.06
- QCITECGHQPRAAW [FOXJ2] — lower, 0.515
- KFFRMQPGGTWI [DCAF4L2] — lower, 2.96
- CCCCCCCCC [Cys09] — higher, 7.96
- QEGPGGPAVLSPAPLGGVW [GALNT2] — lower, 0.738
- RMLEAFIHL [ZNF248] — lower, 1.59
- QICIIQAYLVKQTHIMGLGNIYLSKFAITDLGFFPFFEGKFNYIALLFFPLRDSLLGKCFLRTKI [CHMP5] — lower, 4.31
- SQPSPPSPGAAWGGKSCSLRRAQLAGAVPGHGRFPVTHSLRKPGVIGHLAGQRSWGWF [CLCN6] — lower, 3.27
- YFTIKVKQRKLYAGHICMRIQLFSGCSTTK [TMPRSS11A] — higher, 9.64
- YKCEECGKAFKWSSHLTIH [ZNF93] — higher, 6.32

— the supplement of paper PMC11502859
